For assay [1], the system named is Tie-2 phosphorylation (Ang-2-mediated) in HUVECs. Description: Inhibition of Ang-2-mediated Tie-2 phosphorylation in FOXO1-adenovirus infected HUVECs. The settings on record: antibody 0.5 μg/ml. The class given is cell-based, human. A digest of the protocol:
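FOXO1-adenovirus-infected HUVECs, which secrete Ang-2, received anti-Ang-2 antibodies at 0.5 μg/ml in MCDB131. Percent inhibition was the reduction in phospho-Tie-2/Tie-2 ratio versus control.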

Assay [2] addresses biotin-hBA2 binding to hTie-2 (Homo sapiens, UniProt O15123). Description: ELISA blocking of biotinylated hBA2 binding to hTie-2-His. The settings on record: 20 pM biotinylated hBA2; average of two separate experiments; read-out: Biotin - hBA2 Average IC50. The class given is biochemical. As to the method:
For this experiment, human Tie-2 conjugated to a histidine tag (hTie-2-His; SEQ ID NO:526) was used in a similar fashion to the hTie-2-mFc described above. Antibody concentrations from 5 nM were serially diluted three-fold. […] An average IC50 value for each antibody was calculated based on two separate experiments.
(ELISA stands for enzyme-linked immunosorbent assay.)

Chain of biotin-hBA2 binding to hTie-2 (O15123 with tags, fused parts or gaps): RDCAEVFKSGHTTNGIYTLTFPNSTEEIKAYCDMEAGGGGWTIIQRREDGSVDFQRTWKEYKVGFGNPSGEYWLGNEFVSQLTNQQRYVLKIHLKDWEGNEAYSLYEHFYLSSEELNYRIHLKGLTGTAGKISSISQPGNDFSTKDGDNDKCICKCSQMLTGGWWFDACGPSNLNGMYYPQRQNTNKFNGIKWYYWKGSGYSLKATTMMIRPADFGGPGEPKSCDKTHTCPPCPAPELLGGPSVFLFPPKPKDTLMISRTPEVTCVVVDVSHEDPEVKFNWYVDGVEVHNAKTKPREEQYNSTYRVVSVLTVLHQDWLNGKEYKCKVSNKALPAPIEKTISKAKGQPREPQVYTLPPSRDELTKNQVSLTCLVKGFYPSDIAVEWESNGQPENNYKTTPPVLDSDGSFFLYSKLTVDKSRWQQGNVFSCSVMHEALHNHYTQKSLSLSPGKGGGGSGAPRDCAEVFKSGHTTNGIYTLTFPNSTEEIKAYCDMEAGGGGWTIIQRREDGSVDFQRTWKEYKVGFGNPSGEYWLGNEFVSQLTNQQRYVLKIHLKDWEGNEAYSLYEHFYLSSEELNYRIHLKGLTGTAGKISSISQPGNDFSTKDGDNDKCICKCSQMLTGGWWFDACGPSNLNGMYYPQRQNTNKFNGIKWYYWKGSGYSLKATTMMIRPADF

B1: H1M728N: anti-Ang-2 antibody, HCVR/LCVR SEQ ID NOs 290/298 (antibody, V domains shown)
VH: EVQLVESGGDLVQPGGSLRLSCTASGFTFSKYWMTWVRQAPGRGLEWVANIKEDGNEKYFLDSVKGRFTISRDNAKDLLFLQMNSLRGEDTAVYYCVRDRGIEVAGPFDYWGQGTLVTVSS
VL: DIQMTQSPSTLSASVGDRVTVTCRASQTIINWLAWYQQKPGKAPKLLISKASSLESGVPSRFSGSGSGTEFTLTISSLQPDDFATYYCQQYNRYWTFGQGTMVEIK
Usually IC50 stands for the point on the concentration scale where inhibition reaches its midpoint. Consider B1, for which the “Inhibition of Tie-2 phosphorylation” value in assay [1] is recorded as “++ (50-75%)”. Moreover, the IC50 in assay [2] worked out at 0.0141 nM.
